Assay [1] addresses T1, human OX40 protein expressed on the surface of cells (human, UniProt P43489 29-277).
T1 construct: also called hOX40
T1 sequence: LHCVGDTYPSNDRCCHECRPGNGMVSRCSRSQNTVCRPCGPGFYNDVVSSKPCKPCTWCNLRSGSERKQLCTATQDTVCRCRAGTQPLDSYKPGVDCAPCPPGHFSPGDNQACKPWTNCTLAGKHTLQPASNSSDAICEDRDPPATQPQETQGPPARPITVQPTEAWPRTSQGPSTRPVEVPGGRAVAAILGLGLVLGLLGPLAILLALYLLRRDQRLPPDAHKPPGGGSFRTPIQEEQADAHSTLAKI
Nature of the assay: flow cytometry (MFI) on CD3/CD28-activated primary human CD4+CD3+ T cells, second donor.
Method: Activation of human T cells were evaluated using CD3⁺ T cells isolated from two human donors' peripheral blood mononuclear cells (hPBMCs) pre-activated using CD3/CD28 Dynabeads.

In assay [2] the target is T2, biotinylated OX40 recombinant protein (UniProt P43489 29-216, limits assumed, biotinylated).
T2 construct: also called OX40 protein; Biotin-OX40
T2 sequence (looked up): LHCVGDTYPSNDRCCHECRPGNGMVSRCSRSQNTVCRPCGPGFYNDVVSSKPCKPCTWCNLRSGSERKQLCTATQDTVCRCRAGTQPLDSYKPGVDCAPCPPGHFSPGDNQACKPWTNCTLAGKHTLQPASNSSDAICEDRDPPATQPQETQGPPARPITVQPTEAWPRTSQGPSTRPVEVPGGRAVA
In words: ELISA, plate coated with the antibody, biotinylated OX40 recombinant protein titrated (x axis = its concentration in nM), OD 450nm.
Method: The next day, the plate was blocked with 1% BSA (Sangon Biotech, catalog number A600332-0100) in PBST at 37° C. for 2 hours, and then a defined concentration of biotinylated OX40 recombinant protein was added.

The target of assay [3] is T3, cynomolgus monkey OX40 protein expressed on the surface of cells (cynomolgus monkey).
T3 construct: whole, on cells; On transiently transfected 293T cells
Nature of the assay: flow cytometry (MFI) on activated primary monkey T cells, donor Lot #200107.

The target of assay [4] is T3, cynomolgus monkey OX40 protein …. Nature of the assay: flow cytometry (MFI) on activated primary monkey T cells, donor M20Z013009. Background: A flow cytometer gives signals particle by particle.
Assay [5] addresses T4, human CD40 protein expressed on the surface of 293T cells (human, UniProt P25942 21-277).
T4 construct: whole, on cells
Nature of the assay: flow cytometry on 293T cells transiently transfected with human CD40 (293T-hCD40), goat anti-human IgG PE, MFI.
Method: (§1) Then, after washing twice with PBS, the cells were incubated with the secondary goat anti-human IgG PE antibody (1:200; Abcam, Cat. ab98596) at room temperature for 30 minutes.

The target in assay [6] is T1, human OX40 protein expressed on the …. In words: flow cytometry (MFI) on 293T cells expressing human OX40.
In assay [7] the target is T5, recombinant human OX40-mFc protein (human, UniProt P43489 29-214).
T5 construct: Recombinant dimer (mFc-tagged); also called hOX40.mFc; recombinant human OX40 protein; not shown: mFc tag
T5 sequence: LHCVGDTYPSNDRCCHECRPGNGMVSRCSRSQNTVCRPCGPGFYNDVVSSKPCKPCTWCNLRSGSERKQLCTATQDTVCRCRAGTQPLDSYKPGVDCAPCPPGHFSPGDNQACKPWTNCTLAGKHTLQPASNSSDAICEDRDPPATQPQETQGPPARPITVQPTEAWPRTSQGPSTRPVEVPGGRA
Nature of the assay: BLI (Octet QKe), antibody on anti-human Fc sensor, OX40-mFc in solution, 25 C, pH 7.4, 1:1 model; Experiment A. (In general: BLI is a label-free optical method that tracks binding on a fibre tip over time.)

Assay [8] has as its target T5, recombinant human OX40-mFc protein. Nature of the assay: BLI (Octet QKe), antibody on anti-human Fc sensor, OX40-mFc in solution, 25 C, pH 7.4, 1:1 model; Experiment B.
Method: The changes of binding signal were recorded, and the kinetic analysis of binding parameters were determined using the Model: 1:1 with the mass transfer limitation. The running buffer solution was prepared with PBS, pH 7.4, containing 0.1% BSA and 0.1% Tween 20. Prior to the kinetic binding experiment, the anti-human Fe capture sensor was rinsed with the running buffer, and the instrument was prewarmed to 25° C. […] The binding of OX40 protein and its antibodies was performed in duplicate with the running buffer at pH 7.4 and 25° C. In short, first, the anti-human Fc capture sensor was immersed in the running buffer for 300 seconds to set the first baseline. The sensor was then mixed with 200 nM test antibody solution for 600 seconds to load the antibody. The sensor was again immersed in the running buffer for 300 seconds to set the second baseline, and then associated with various concentrations of OX40 antigen for 900 seconds. Then dissociation was performed by immersing the sensor in the running buffer for another 900 seconds. In parallel, one sensor was selected as a reference, in which all loading, association, and dissociation steps were performed in the running buffer. […] The sensorgrams were analyzed by Fortebio data analysis software version 8.2 (ForteBio; Fremont, CA). First, the signals were subtracted from the negative control experiment, and compared to the baselines. The kinetic parameters were obtained by entirely fitting these specific sensorgrams with different antigen concentrations to the binding Model: 1:1.
Assay [9] concerns the target T6, mouse OX40 protein expressed on the surface of 293T cells (mouse, UniProt P47741 20-272).
T6 construct: whole, on cells
T6 sequence (looked up): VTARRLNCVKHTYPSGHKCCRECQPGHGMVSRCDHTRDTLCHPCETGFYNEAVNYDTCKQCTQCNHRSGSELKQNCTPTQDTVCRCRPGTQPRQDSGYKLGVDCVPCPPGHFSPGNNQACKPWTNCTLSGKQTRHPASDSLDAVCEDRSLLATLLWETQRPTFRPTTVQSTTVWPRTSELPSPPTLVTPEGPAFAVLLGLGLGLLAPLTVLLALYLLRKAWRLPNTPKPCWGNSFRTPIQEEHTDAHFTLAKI
In words: flow cytometry on 293T cells transiently transfected with mouse OX40, goat anti-human IgG PE, MFI.
Method: as §1

The target of assay [10] is T3, cynomolgus monkey OX40 protein …. In words: flow cytometry (MFI) on transfected 293T cells.
In assay [11] the target is T1, human OX40 protein expressed on the …. In words: flow cytometry (MFI) on transfected 293T cells.
Assay [12] deals with T3, cynomolgus monkey OX40 protein …. Nature of the assay: flow cytometry (MFI) on 293T cells expressing cynomolgus monkey OX40.
Assay [13] deals with T1, human OX40 protein expressed on the …. Nature of the assay: flow cytometry (MFI) on CD3/CD28-activated primary human CD4+CD3+ T cells, first donor.
The target in assay [14] is T3, cynomolgus monkey OX40 protein …. In words: flow cytometry (MFI) on activated primary monkey T cells, donor M20Z025008.
Assay [15] has as its target T1, human OX40 protein expressed on the …. Nature of the assay: cell-based or functional assay.

T4 sequence (P25942 21-277): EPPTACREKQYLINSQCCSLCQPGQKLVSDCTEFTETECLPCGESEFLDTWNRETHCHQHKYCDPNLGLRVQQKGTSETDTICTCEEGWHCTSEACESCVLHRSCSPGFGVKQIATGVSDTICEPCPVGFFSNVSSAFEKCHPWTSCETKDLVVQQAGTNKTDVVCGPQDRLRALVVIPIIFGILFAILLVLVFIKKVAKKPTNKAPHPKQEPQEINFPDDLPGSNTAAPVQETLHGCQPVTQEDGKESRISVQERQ

B1: anti-OX40 antibody HFB10-1E1hG1 (antibody, human IgG1, kappa, V domains shown)
VH: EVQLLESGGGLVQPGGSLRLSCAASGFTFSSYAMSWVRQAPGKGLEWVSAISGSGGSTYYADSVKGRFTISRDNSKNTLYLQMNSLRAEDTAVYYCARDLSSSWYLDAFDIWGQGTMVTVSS
VL: DIQMTQSPSSVSASVGDRVTITCRASQGISSWLAWYQQKPGKAPKLLIYAASSLQSGVPSRFSGSGSGTDFTLTISSLQPEDFATYYCQQANSFPLTFGGGTKLEIKR
notes: also called HFB301001
By EC50 is commonly meant the concentration giving half of the maximal effect. By EC50 (read off the curve) is commonly meant the concentration that produces a half-maximal response. Usually Kd stands for the free concentration of one partner at which half of the binding sites on the other are occupied at equilibrium, for simple one-to-one binding. One may read the koff as a measure of how fast the partners let go of each other. In general, kon refers to the second-order rate constant of association. On to B1, for which the EC50 is 1.36 nM in [1]; 0.09 nM in assay [3]; 0.19 nM in assay [4]; 2.02 nM in assay [6]; 2.9 nM in assay [10]; 2 nM in assay [11]. The figures for the EC50 in assay [12], in assay [13] and in [14] were 2.94 nM, 0.65 nM and 0.17 nM, respectively. The “EC50 (read off the curve)” value in assay [2] was around 0.2 nM. Also, the binding result in [5] and in assay [9] was “no binding (tested: 100 nM)” in each case. The Kd in [7] was 4.5 nM; in assay [8] it was 4.4 nM. For the same molecule, the koff in assay [7] and in assay [8] was 0.00043 s⁻¹ throughout. The kon in assay [7] and in assay [8] was 97000 M⁻¹ s⁻¹ in each case. Besides, the “CD16 signaling in CD16-NF-AT-Luc reporter Jurkat cells, EC50 (nM), E:T 1:1” value in assay [15] is 1.2 nM. The “CD16 signaling in CD16-NF-AT-Luc reporter Jurkat cells, EC50 (nM), E:T 3:1” value in assay [15] came out at 0.7 nM. In addition, the “CD16 signaling in CD16-NF-AT-Luc reporter Jurkat cells, EC50 (nM), E:T 6:1” value in assay [15] came to 0.5 nM. The “CD16 signaling in CD16-NF-AT-Luc reporter Jurkat cells, EC50 (nM), E:T 12:1” value in assay [15] amounted to 0.3 nM.
